In this assay the target is T1, IGF-I F49A (G1S-A70V background) displayed on phage (human; bacteriophage M13).
T1 chain: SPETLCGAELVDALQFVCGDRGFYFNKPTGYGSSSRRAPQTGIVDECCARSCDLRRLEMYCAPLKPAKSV
Description: competitive phage ELISA; IC50mut/IC50 G1S-A70V. The settings on record: remark: other sources report otherwise.

B1: human IGFBP-1, P08833 26-259 (protein, UniProt P08833 26-259, looked up)
chain: APWQCAPCSAEKLALCPPVSASCSEVTRSAGCGCCPMCALPLGAACGVATARCARGLSCRALPGEQQPLHALTRGQGACVQESDASAPHAAEAGSPESPESTEITEEELLDNFHLMAPSEEDHSILWDAISTYDGSKALHVTNIKKWKEPCRIELYRVVESLAKAQETSGEEISKFYLPNCNKNGFYHSRQCETSMDGEAGLCWCVYPWNGKRIPGSPEIRGDPNCQIYFNVQN
Consider B1, for which the relative IC50 was over 100.

The record behind these values is US20020160955A1.
